Results as given in patent publication US20260217787A1 (MONSANTO TECHNOLOGY, published 2026).

Tests used:
[1] = target: SfABCc2 (Spodoptera frugiperda); test: cell-based or functional assay
[2] = target: Spodoptera_frugiperda_ABC_transporter (Spodoptera frugiperda); test: cell-based or functional assay
[3] = target: HzABCa7 (Helicoverpa zea); test: cell-based or functional assay
[4] = target: SfABCa3 (Spodoptera frugiperda); test: cell-based or functional assay
Cry3Aa = target: T1, Cry3Aa (Bacillus thuringiensis, UniProt P0A379 1-644); test: yeast two-hybrid
T1 sequence: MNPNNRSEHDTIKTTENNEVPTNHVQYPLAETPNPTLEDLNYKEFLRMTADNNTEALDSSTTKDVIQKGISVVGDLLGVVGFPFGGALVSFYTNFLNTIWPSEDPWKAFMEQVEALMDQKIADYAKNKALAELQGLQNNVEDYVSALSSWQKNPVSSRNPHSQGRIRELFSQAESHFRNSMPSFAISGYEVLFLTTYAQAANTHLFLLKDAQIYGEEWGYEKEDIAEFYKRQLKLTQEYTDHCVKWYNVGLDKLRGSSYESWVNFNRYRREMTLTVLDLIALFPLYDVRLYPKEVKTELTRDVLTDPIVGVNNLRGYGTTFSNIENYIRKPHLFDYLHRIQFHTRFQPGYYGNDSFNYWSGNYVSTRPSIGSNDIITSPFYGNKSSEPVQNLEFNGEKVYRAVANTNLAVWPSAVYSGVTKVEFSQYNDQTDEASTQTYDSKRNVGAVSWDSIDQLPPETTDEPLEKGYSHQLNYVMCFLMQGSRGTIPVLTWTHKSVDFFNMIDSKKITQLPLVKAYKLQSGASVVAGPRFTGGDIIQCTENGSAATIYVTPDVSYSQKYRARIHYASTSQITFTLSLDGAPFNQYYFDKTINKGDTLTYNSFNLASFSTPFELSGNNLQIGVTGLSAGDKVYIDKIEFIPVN

Molecule: Cry1Ac as used in the Sf9 cytotoxicity assays (from UniProt P05068 29-623) (ligand)
- Sytox Green Fluresence, treatment (control buffer 645) [1]: 20700
- Sytox Green Fluresence, treatment (control buffer 645) [2]: 18600

Molecule: Cry2Ab as used in the Sf9 cytotoxicity assays (ligand)
- Sytox Green Fluresence, treatment (control buffer 5398) [3]: 55300
- Sytox Green Fluresence, treatment (control buffer 5398) [4]: 30600

B1: Aminopeptidase Fragment 5 (receptor)
chain: GFPVVNAVFNGKNVTFSQKRFLYTGNNNTQWYIPVTYRLSNSSSYETFWLAPNSSVTILNNLTDKDWLIVNDDSRGYYRVKYCKRLTQRIQSLLNQNHTQISELNRAQILDDSLNLARAGYIKYSEAFELLEYLKNETSYFPWFTTIKNMDYLVTRLGANTELGKRTNAMILDLISQISANISTTKWEEIDQVTTLKLQRVWADACKRGQASCISETKRLFQALRLNKTSVNPNIRDVVYCNALRNSNNIAADWEFLWNRLLISIHPQEDLYILLSLGCTTHKPYLTRLLDATINSTSVIKLQNLYTVWNSVGSASKEGLDLAFEYFVNNYKKIIEYYPDGISLLSQLANRFTTNAEVTKLQQFADRLEKNSTIRAVANSALTTARQNLQFRARIEDDLNDYFKIDNSGSSV
notes: Yeast two-hybrid construct; also called Aminopeptidase N fragment 5
- binding result (Cry3Aa): no binding
